Source: patent US20040175379A1

Molecular target: biotinylated EpoR (Abbott CHO cell derived ref.#RB69084:4) (UniProt P19235)
Assay: immunofluorescence microscopy on EpoR-coated sheep red blood cells, MAB307 at 20 ug/ml

biotinylated EpoR (Abbott CHO cell derived ref.#RB69084:4), sequence (P19235 25-250 limits assumed): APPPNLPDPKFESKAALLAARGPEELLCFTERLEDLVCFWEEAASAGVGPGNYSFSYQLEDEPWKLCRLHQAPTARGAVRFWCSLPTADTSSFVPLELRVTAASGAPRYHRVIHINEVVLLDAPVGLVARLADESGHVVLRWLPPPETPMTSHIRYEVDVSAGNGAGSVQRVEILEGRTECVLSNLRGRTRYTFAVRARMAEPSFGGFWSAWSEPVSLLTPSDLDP

immunofluorescence score (arbitrary scale of 0-4): 4 of 4
Substance: murine anti-EpoR antibody (R&D Systems Cat. #MAB307)
